± gives the uncertainty stated by the source.

A short description of the data set: self-splicing fitness, log relative to wild type (ln ratio); higher = more splicing; Tetrahymena group I intron in knt gene, E. coli kanamycin selection, DiMSum; sequences stand for … in CUCUCU…GGAGGGAAAAGUUAUCAGGCAUGCACCUGGUAGCUAGUCUUUAAACCAAUAGAUUGCAUCGGUUUAAAAGGCAAGACCGUCAAAUUGCGGGAAAGGGGUCAACAGCCGUUCAGUACCAAGUCUCAGGGGAAACUUUGAGAUGGCCUUGCAAAGGGUAUGGUAAUAAGCUGACGGACAUGGUCCUAACCACGCAGCCAAGUCCUAAGUCAACAGAUCUUCUGUUGAUAUGGAUGCAGUUCACAGACUAAAUGUCGGUCGGGGAAGAUGUAUUCUUCUCAUAAGAUAUAGUCGGACCUCUCCUUAAUGGGAGCUAGCGGAUGAAGUGAUGCAACACUGGAGCCGCUGGGAACUAAUUUGUAUGCGAAAGUAUAUUGAUUAGUUUUGGAGUACUCGUGGUCG
The gist of the method: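 Library with all eight P1ex-region intron nucleotides randomised, intron inside the knt kanamycin-resistance gene on pET-22b(+), in E. coli BL21(DE3). Cells grew overnight at 37°C or 30°C on LB agar with or without 25 μg/mL kanamycin (plus 100 μg/mL carbenicillin, 50 μM IPTG, 0.2% rhamnose), in six replicate transformations. Pooled colonies were amplicon-sequenced on Illumina HiSeq 2500. DiMSum fitness is the error-weighted combination of wild-type-normalised replicate fold changes, kanamycin versus none.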

With GGCCAGCAAUAUUACGGGGC, the “self-splicing fitness (ln)” value is -5.35 ± 0.32 (30 °C) and -4.33 ± 0.23 (37 °C).
For GGCCAGCAAUAUUACGGGGU, in that order: -3.68 ± 0.24 and -3.21 ± 0.26.
Consider GGCCAGCAAUAUUACGGGUC, for which the “self-splicing fitness (ln)” value is, setting by setting: (30 °C) -3.65 ± 0.26; (37 °C) -2.41 ± 0.23.
The like results for GGCCAGCAAUAUUACGGUAC were, in that order, -3.7 ± 0.19 and -2.3 ± 0.15.
Turning to GGCCAGCAAUAUUACGGUGG, the “self-splicing fitness (ln)” value was -2.52 ± 0.14 (30 °C) and -1.85 ± 0.14 (37 °C).
In the case of GGCCAGCAAUAUUACGUCAA, the “self-splicing fitness (ln)” value is, setting by setting: (30 °C) -1.34 ± 0.31; (37 °C) -2.61 ± 0.35.
In the case of GGCCAGCAAUAUUACGUCUC, the “self-splicing fitness (ln)” value is -1.1 ± 0.089 (30 °C) and -0.447 ± 0.12 (37 °C).
In the case of GGCCAGCAAUAUUACGUCUG, the “self-splicing fitness (ln)” value was -3.07 ± 0.24 (30 °C) and -2.93 ± 0.32 (37 °C).
For GGCCAGCAAUAUUACGUUGU, in that order: -0.721 ± 0.072 and -0.537 ± 0.1.
For the sequence GGCGAGCAAUAUUACGACGU, the “self-splicing fitness (ln)” value reads like this: (30 °C) -1.36 ± 0.16; (37 °C) -0.783 ± 0.21.
Turning to GGCGAGCAAUAUUACGAGAG, the “self-splicing fitness (ln)” value (30 °C) is -3.79 ± 0.39 and the “self-splicing fitness (ln)” value (37 °C) was -2.54 ± 0.33.
With GGCGAGCAAUAUUACGAGAU, the “self-splicing fitness (ln)” value runs as follows: (30 °C) -3.61 ± 0.32; (37 °C) -2.37 ± 0.49.
The like results for GGCGAGCAAUAUUACGAGGA were, in that order, -3.43 ± 0.43 and -2.43 ± 0.25.
On to GGCGAGCAAUAUUACGAUAA, for which the “self-splicing fitness (ln)” value reads like this: (30 °C) -1.64 ± 0.13; (37 °C) -0.294 ± 0.15.
For GGCGAGCAAUAUUACGAUAU, in that order: -2.12 ± 0.12 and -0.859 ± 0.12.
The like results for GGCGAGCAAUAUUACGAUGU were, in that order, -3.69 ± 0.32 and -1.53 ± 0.2.
Take GGCGAGCAAUAUUACGAUUU: the “self-splicing fitness (ln)” value is -1.09 ± 0.092 (30 °C) and -0.569 ± 0.12 (37 °C).
For GGCGAGCAAUAUUACGCAAC, in that order: -0.841 ± 0.36 and -0.673 ± 0.27.
For GGCGAGCAAUAUUACGCAUA, the “self-splicing fitness (ln)” value reads like this: (30 °C) -1.15 ± 0.17; (37 °C) -0.988 ± 0.16.
As for GGCGAGCAAUAUUACGCCAG, the “self-splicing fitness (ln)” value is -1 ± 0.18 (30 °C) and -2.71 ± 0.44 (37 °C).
For the sequence GGCGAGCAAUAUUACGCCGA, the “self-splicing fitness (ln)” value was -2.65 ± 0.18 (30 °C) and -1.45 ± 0.091 (37 °C).
As to GGCGAGCAAUAUUACGCGAC, the “self-splicing fitness (ln)” value (30 °C) was -2.61 ± 0.42.
As for GGCGAGCAAUAUUACGCGAU, the “self-splicing fitness (ln)” value (30 °C) was -3.7 ± 0.26 and the “self-splicing fitness (ln)” value (37 °C) is -1.62 ± 0.19.
For the sequence GGCGAGCAAUAUUACGCGUU, the “self-splicing fitness (ln)” value is -2.26 ± 0.24 (30 °C) and -1.94 ± 0.3 (37 °C).
For GGCGAGCAAUAUUACGCUCU, the “self-splicing fitness (ln)” value is -2.72 ± 0.23 (30 °C) and -2.06 ± 0.2 (37 °C).
GGCGAGCAAUAUUACGGAAU: the “self-splicing fitness (ln)” value is, setting by setting: (30 °C) -2.91 ± 0.19; (37 °C) -1.87 ± 0.21.
For GGCGAGCAAUAUUACGGCGA, the “self-splicing fitness (ln)” value is -0.138 ± 0.078 (30 °C) and -0.0802 ± 0.092 (37 °C).
Regarding GGCGAGCAAUAUUACGGCUA, the “self-splicing fitness (ln)” value is -0.343 ± 0.13 (30 °C) and 0.287 ± 0.14 (37 °C).
For GGCGAGCAAUAUUACGGCUC, the “self-splicing fitness (ln)” value is, setting by setting: (30 °C) -1.83 ± 0.11; (37 °C) -0.815 ± 0.21.
Turning to GGCGAGCAAUAUUACGGGUC, the “self-splicing fitness (ln)” value is -1.2 ± 0.26 (30 °C) and -1.81 ± 0.35 (37 °C).
In the case of GGCGAGCAAUAUUACGGGUU, the “self-splicing fitness (ln)” value was -2.52 ± 0.15 (30 °C) and -1.32 ± 0.13 (37 °C).
In the case of GGCGAGCAAUAUUACGUCAU, the “self-splicing fitness (ln)” value was -2.45 ± 0.14 (30 °C) and -1.76 ± 0.11 (37 °C).
For GGCGAGCAAUAUUACGUCCU, in that order: -2.41 ± 0.1 and -1.28 ± 0.09.
Consider GGCGAGCAAUAUUACGUCGC, for which the “self-splicing fitness (ln)” value (30 °C) was -2.72 ± 0.23.
As to GGCGAGCAAUAUUACGUGAC, the “self-splicing fitness (ln)” value is -1.24 ± 0.18 (30 °C) and -1.65 ± 0.29 (37 °C).
Turning to GGCGAGCAAUAUUACGUGAG, the “self-splicing fitness (ln)” value reads like this: (30 °C) -3.25 ± 0.18; (37 °C) -2.57 ± 0.2.
Turning to GGCGAGCAAUAUUACGUGUG, the “self-splicing fitness (ln)” value is, setting by setting: (30 °C) -1.13 ± 0.1; (37 °C) -0.745 ± 0.14.
Regarding GGCGAGCAAUAUUACGUUAG, the “self-splicing fitness (ln)” value reads like this: (30 °C) -1.94 ± 0.15; (37 °C) -2.49 ± 0.4.
